Assay results: publication PMC7189753

Target: ChuX
Assay: AUC

ChuX (natural protein) gave a percent of the sample as dimer (2.9 S species) of 81.3% and a percent of the sample as tetramer (4.5 S species) of 10.8%.
